Test results from PMC13507242.
Values belong to the substance of their own block, whether it stands above or below them.

Columns and labels:
[1] = target: CD33^M ectodomain (CD33 ECD), residues 21-232, glycosylated (human); assay: AUC; sedimentation velocity (0.4 mg/ml, 40,000 rpm) and sedimentation equilibrium (0.2, 0.1, 0.05 mg/ml, 16,000 or 20,000 rpm), 20 °C, 20 mM HEPES, 200 mM NaCl, pH 7.5; dimer to monomers
[2] = target: CD33^M ectodomain (CD33^M ECD), residues 21-232, Endo Hf-deglycosylated (human); assay: SEC-MALS; Superdex 75 10/300 GL, 20 mM HEPES, 200 mM NaCl, pH 7.5; loaded at 100 and 20 µM (<10 and 2 µM on the column); dimer to monomers
[3] = target: CD33^M ectodomain (CD33^M ECD), residues 21-232, Endo Hf-deglycosylated (human); assay: AUC; sedimentation velocity (0.4 mg/ml, 40,000 rpm) and sedimentation equilibrium (0.2, 0.1, 0.05 mg/ml, 16,000 or 20,000 rpm), 20 °C, 20 mM HEPES, 200 mM NaCl, pH 7.5; dimer to monomers
[4] = target: endogenous CD33^M of human U937 monocytic cells (human (endogenous in U937))
[5] = target: endogenous CD33^M of human U937 monocytic cells (human (endogenous in U937)); assay: co-IP; U937 cells (endogenous CD33) exposed to CLU (60 nM), desCLU, rCLU or CLU + Aβ; CD33 immunoprecipitated from lysates, blot for CLU
[6] = target: CD33^M ectodomain (CD33^M ECD), residues 21-232, Endo Hf-deglycosylated (human); assay: BLI; Octet RED384, 30 °C, 20 mM HEPES, 200 mM NaCl, 1 mg/mL casein, pH 7.5; Ni-NTA biosensors loaded with His6 deglycosylated CD33^M ECD WT or R119A; CLU 0.0025-5 µM; steady state (895-900 s), Hill equation; avidity
[7] = target: HA-tagged CD33^M (full-length major isoform) expressed in HEK293 / HEK293T cells (human); assay: co-IP; HEK293 / HEK293T cells expressing HA-tagged CD33 incubated with CLU (30 nM in the methods, 60 nM in the results), washed, lysed in 1% CHAPSO/TBS; IP with anti-HA, blot for CLU
[8] = target: CD33^M ectodomain (CD33^M ECD), residues 21-232, Endo Hf-deglycosylated (human); assay: MST; Monolith NT.115, 23 °C, deglycosylated CD33 ECD labelled with Alexa Fluor 647; 20 mM HEPES pH 7.5, 150 mM NaCl, 0.05% Tween-20
[9] = target: CD33^M ectodomain (CD33^M ECD), residues 21-232, Endo Hf-deglycosylated (human); assay: BLI; Octet RED384, 30 °C, 20 mM HEPES, 200 mM NaCl, 1 mg/mL casein, pH 7.5; Ni-NTA biosensors loaded with His6 deglycosylated CD33^M ECD WT or R119A; CLU 0.0025-5 µM; steady state (895-900 s), Hill equation; avidity; remark: listed apart in the source

Chain of endogenous CD33^M of human U937 monocytic cells (human (endogenous in U937)) (P20138 18-364): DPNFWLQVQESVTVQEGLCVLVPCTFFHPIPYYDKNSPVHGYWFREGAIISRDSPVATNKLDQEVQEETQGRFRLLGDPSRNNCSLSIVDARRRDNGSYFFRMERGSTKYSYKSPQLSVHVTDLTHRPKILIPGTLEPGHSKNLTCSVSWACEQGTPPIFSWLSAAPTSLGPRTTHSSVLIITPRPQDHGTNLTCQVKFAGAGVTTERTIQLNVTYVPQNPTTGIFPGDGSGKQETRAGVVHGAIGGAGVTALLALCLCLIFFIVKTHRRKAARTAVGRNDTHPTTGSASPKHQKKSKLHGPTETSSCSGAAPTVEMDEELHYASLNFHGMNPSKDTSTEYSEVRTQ
Chain of HA-tagged CD33^M (full-length major isoform) expressed in HEK293 / HEK293T cells (human) (P20138 18-364): as above

- Kd [1]: 300 nM
Substance: CD33^M ectodomain (CD33 ECD), residues 21-232, glycosylated (domain or fragment)

- Kd [2]: 100 nM
- stoichiometry N [2]: 2
- Kd [3]: 710 nM
Substance: CD33^M ectodomain (CD33^M ECD), residues 21-232, Endo Hf-deglycosylated (domain or fragment)

Substance: CLU + Aβ1-42 oligomers (CLU/Aβ 1-42 mixture) (from UniProt P10909 23-227; P10909 228-449; P05067 672-713) (complex)
- CD33 ITIM tyrosine phosphorylation (CD33^M-pTyr) in U937 cells, relative to no treatment (relative to no treatment (1.00)) [4]: 11.9
- CD33-bound CLU in the co-IP (panel e) [5]: 1.06
- Kd [6]: 28.2 nM
- CD33-bound CLU in the co-IP (panel d) [7]: 1.38

- Kd [8]: 55.1 nM
- Kd [9]: 28.9 nM
- CD33 ITIM tyrosine phosphorylation (CD33^M-pTyr) in U937 cells, relative to no treatment (relative to no treatment (1.00)) [4]: 6.28
- CD33-bound CLU in the co-IP (panel e) [5]: 1.04
- ratio of CLU to CD33 band intensities [5]: 1.23 arb. units
- Kd [6]: 27.9 nM
- CD33-bound CLU in the co-IP (panel d) [7]: 1.15
- ratio of co-precipitated CLU to CD33 band intensities [7]: 0.85 arb. units
- ratio of co-precipitated CLU to CD33 band intensities (panel c) [7]: 0.425 arb. units
- ratio of co-precipitated CLU to CD33 band intensities, cells expressing CD33^M + CD33^m [7]: 0.45 arb. units
Substance: native sialylated clusterin (CLU) purified from human plasma (from UniProt P10909 23-227; P10909 228-449) (ligand)
